The target of experiment [1] is DENV2 sE Cm1, displayed on EXPI293F cells (Dengue virus 2 strain 16681). Briefly: flow cytometry, EXPI293F surface display, RT (~23 C).
The target of experiment [2] is DENV2 sE HCat3, displayed on EXPI293F cells (Dengue virus 2 strain 16681). The experiment is described as above.
The target of experiment [3] is DENV2 sE IntFc8, displayed on EXPI293F cells (Dengue virus 2 strain 16681). The experiment is described as above.
Experiment [4] has as its target DENV2 sE PM2, displayed on EXPI293F cells (Dengue virus 2 strain 16681). The description is as above.
For experiment [5], the target named is DENV2 sE IntFc6, displayed on EXPI293F cells (Dengue virus 2 strain 16681). The description is as above.
Experiment [6] has as its target DENV2 sE UndPk6, displayed on EXPI293F cells (Dengue virus 2 strain 16681). The experiment is described as above.
In experiment [7] the target is DENV2 sE Mnmer2, displayed on EXPI293F cells (Dengue virus 2 strain 16681). The description is as above.
In experiment [8] the target is DENV2 sE PM4, displayed on EXPI293F cells (Dengue virus 2 strain 16681). Described as above.
In experiment [9] the target is DENV2 sE Cm2, displayed on EXPI293F cells (Dengue virus 2 strain 16681). The description is as above.
Experiment [10] deals with DENV2 sE SHP2, displayed on EXPI293F cells (Dengue virus 2 strain 16681). The experiment is described as above.
For experiment [11], the target named is DENV2 sE IntFc2, displayed on EXPI293F cells (Dengue virus 2 strain 16681). The experiment is described as above.
Experiment [12] has as its target DENV2 sE Mnmer1, displayed on EXPI293F cells (Dengue virus 2 strain 16681). The experiment is described as above.
Experiment [13] concerns the target DENV2 sE SHP1, displayed on EXPI293F cells (Dengue virus 2 strain 16681). Described as above.
The target in experiment [14] is DENV2 sE WT, displayed on EXPI293F cells (Dengue virus 2 strain 16681). The description is as above.
Experiment [15] concerns the target DENV2 sE Cm1, displayed on EXPI293F cells (Dengue virus 2 strain 16681). In words: flow cytometry, EXPI293F surface display, 40 C.
The target of experiment [16] is DENV2 sE HCat3, displayed on EXPI293F cells (Dengue virus 2 strain 16681). In words: flow cytometry, EXPI293F surface display, 40 C.
Experiment [17] has as its target DENV2 sE IntFc8, displayed on EXPI293F cells (Dengue virus 2 strain 16681). In words: flow cytometry, EXPI293F surface display, 40 C.
Experiment [18] deals with DENV2 sE PM2, displayed on EXPI293F cells (Dengue virus 2 strain 16681). In words: flow cytometry, EXPI293F surface display, 40 C.
Experiment [19] deals with DENV2 sE IntFc6, displayed on EXPI293F cells (Dengue virus 2 strain 16681). Briefly: flow cytometry, EXPI293F surface display, 40 C.
Experiment [20] concerns the target DENV2 sE UndPk6, displayed on EXPI293F cells (Dengue virus 2 strain 16681). Briefly: flow cytometry, EXPI293F surface display, 40 C.
Experiment [21] has as its target DENV2 sE Mnmer2, displayed on EXPI293F cells (Dengue virus 2 strain 16681). In words: flow cytometry, EXPI293F surface display, 40 C.
In experiment [22] the target is DENV2 sE PM4, displayed on EXPI293F cells (Dengue virus 2 strain 16681). Briefly: flow cytometry, EXPI293F surface display, 40 C.
The target of experiment [23] is DENV2 sE Cm2, displayed on EXPI293F cells (Dengue virus 2 strain 16681). In words: flow cytometry, EXPI293F surface display, 40 C.
In experiment [24] the target is DENV2 sE SHP2, displayed on EXPI293F cells (Dengue virus 2 strain 16681). Briefly: flow cytometry, EXPI293F surface display, 40 C.
Experiment [25] concerns the target DENV2 sE IntFc2, displayed on EXPI293F cells (Dengue virus 2 strain 16681). In words: flow cytometry, EXPI293F surface display, 40 C.
The target in experiment [26] is DENV2 sE Mnmer1, displayed on EXPI293F cells (Dengue virus 2 strain 16681). Briefly: flow cytometry, EXPI293F surface display, 40 C.
In experiment [27] the target is DENV2 sE SHP1, displayed on EXPI293F cells (Dengue virus 2 strain 16681). In words: flow cytometry, EXPI293F surface display, 40 C.
Experiment [28] has as its target DENV2 sE WT, displayed on EXPI293F cells (Dengue virus 2 strain 16681). In words: flow cytometry, EXPI293F surface display, 40 C.
In experiment [29] the target is DENV2 sE WT (Dengue virus 2 strain 16681) (UniProt P29990). Briefly: nanoDSF Van't Hoff, homodimer, 37 C. More on the design: TΔS°bind: unit not given here.
In experiment [30] the target is DENV2 sE HCat3, displayed on EXPI293F cells (Dengue virus 2 strain 16681). In words: flow cytometry, displayed sE, 40 C.
Experiment [31] has as its target DENV2 sE IntFc8, displayed on EXPI293F cells (Dengue virus 2 strain 16681). In words: flow cytometry, displayed sE, 40 C.
For experiment [32], the target named is DENV2 sE PM2, displayed on EXPI293F cells (Dengue virus 2 strain 16681). In words: flow cytometry, displayed sE, 40 C.
Experiment [33] concerns the target DENV2 sE UndPk6, displayed on EXPI293F cells (Dengue virus 2 strain 16681). Briefly: flow cytometry, displayed sE, 40 C.
Experiment [34] deals with DENV2 sE PM4, displayed on EXPI293F cells (Dengue virus 2 strain 16681). In words: flow cytometry, displayed sE, 40 C.
Experiment [35] concerns the target DENV2 sE SHP2, displayed on EXPI293F cells (Dengue virus 2 strain 16681). Briefly: flow cytometry, displayed sE, 40 C.
Experiment [36] deals with DENV2 sE IntFc2, displayed on EXPI293F cells (Dengue virus 2 strain 16681). Briefly: flow cytometry, displayed sE, 40 C.
Experiment [37] has as its target DENV2 sE SHP1, displayed on EXPI293F cells (Dengue virus 2 strain 16681). Briefly: flow cytometry, displayed sE, 40 C.

The text below walks through data of US20220289796A1.

Regarding 3H5 (antibody), the Fluorescence Ratio (Fr, Var/WT) was 0.5 in experiment [1]; 0.7 in experiment [2]; 0.5 in experiment [3]; 0.7 in experiment [4]; 0.6 in [5]; 0.8 in [6]. Besides, the Fluorescence Ratio (Fr, Var/WT) in experiment [7] came out at 0.8; in experiment [8], 0.8; in experiment [9], 0.4; in experiment [10] it was 0.6; in [11] it was 0.8; in experiment [12], 0.3. Also, the Fluorescence Ratio (Fr, Var/WT) was 0.7 in experiment [13]; 1 in experiment [14]; 0.6 in [15]; 0.6 in [16]; 0.4 in [17]; 0.5 in [18]. For the same substance, the Fluorescence Ratio (Fr, Var/WT) worked out at 0 in [19]; 0.4 in experiment [20]; 0.8 in experiment [21]; 0.4 in experiment [22]; 0.6 in experiment [23]; 0.5 in experiment [24]. For the same substance, the Fluorescence Ratio (Fr, Var/WT) in [25] is 0.6; in [26], 0; in [27], 0.5; in experiment [28], 1.
Consider “DENV2 sE WT (from UniProt P29990 281-677)”, for which, in experiment [29], the Kd is 13 µM, the TΔS°bind is -67.1, the ΔG°bind is -6.9 kcal/mol and the ΔH°bind is -74.1 kcal/mol.
As for 1C19 (antibody), the Fluorescence Ratio (Fr, Var/WT) in experiment [1] came to 0.9; in experiment [2], 1.5; in [3], 2; in [4], 1.7; in experiment [5] it was 0.8; in [6] it was 2.4. For the same substance, the Fluorescence Ratio (Fr, Var/WT) in [7] is 0.8; in [8], 2.1; in experiment [9], 0.6; in experiment [10], 1.2; in [11], 1.4; in experiment [12] it was 0.2. In addition, the Fluorescence Ratio (Fr, Var/WT) was 1.3 in [13]; 1 in experiment [14]; 3.2 in [15]; 2.5 in experiment [16]; 3.5 in [17]; 2.5 in experiment [18]. Further, the Fluorescence Ratio (Fr, Var/WT) is 0 in experiment [19]; 2.9 in experiment [20]; 0.8 in [21]; 3.1 in experiment [22]; 1.6 in [23]; 1.9 in [24]. The Fluorescence Ratio (Fr, Var/WT) in experiment [25] was determined as 2.5; in [26], 0; in experiment [27] it was 1.8; in experiment [28], 1.
For EDE1 C8 (antibody), the Fluorescence Ratio (Fr, Var/WT) worked out at 0.9 in experiment [1]; 1.9 in [2]; 3.3 in [3]; 2.4 in experiment [4]; 1.3 in [5]; 2.3 in experiment [6]. In addition, the Fluorescence Ratio (Fr, Var/WT) is 2.7 in [7]; 3.2 in experiment [8]; 1.7 in [9]; 2.3 in experiment [10]; 1.3 in experiment [11]; 0.7 in [12]. In addition, the results for the Fluorescence Ratio (Fr, Var/WT) in experiment [13] and in experiment [14] were 2.9 and 1, respectively.
For EDE1 C10 (antibody), the Fr (geometric mean fluorescence intensity ratio, variant/WT) in experiment [30], in experiment [31], in [32], in experiment [33], in experiment [34] and in experiment [35] was more than 2 fold throughout. The Fr (geometric mean fluorescence intensity ratio, variant/WT) in experiment [36] and in [37] was more than 2 fold throughout. Further, the Fluorescence Ratio (Fr, Var/WT) in experiment [16] came out at 3; in experiment [17], 5.9; in experiment [18], 3.7; in experiment [19], 0; in experiment [20], 4.1; in experiment [21] it was 0.1. For the same substance, the Fluorescence Ratio (Fr, Var/WT) in experiment [23] is 3.8; in [24], 3.8; in [25] it was 3.4; in experiment [26], 0; in [27] it was 5.6; in experiment [28] it was 1.
